Tests used:
[1] = target: HLA-C*03:03; assay: IEDB peptide-MHC binding, purified MHC/direct/fluorescence; filed as Kd, often an IC50 or EC50 that approximates it; ≥ and ≤ were set here for values at or beyond the usual limits of such assays
[2] = target: HLA-A*02:01; assay: IEDB peptide-MHC binding, purified MHC/competitive/fluorescence; filed as Kd, often an IC50 or EC50 that approximates it; ≥ and ≤ were set here for values at or beyond the usual limits of such assays
[3] = target: HLA-A*02:16; assay: as above
[4] = target: HLA-C*07:02; assay: IEDB peptide-MHC binding, purified MHC/direct/fluorescence; filed as Kd, often an IC50 or EC50 that approximates it; ≥ and ≤ were set here for values at or beyond the usual limits of such assays
[5] = target: HLA-A*02:01; assay: as above
[6] = target: HLA-A*02:03; assay: as above; settings: source organism: Variola virus
[7] = target: HLA-A*69:01; assay: as above
[8] = target: HLA-A*31:01; assay: IEDB peptide-MHC binding, purified MHC/competitive/fluorescence; filed as Kd, often an IC50 or EC50 that approximates it; ≥ and ≤ were set here for values at or beyond the usual limits of such assays; settings: source organism: Variola virus
[9] = target: HLA-A*02:03; assay: as above; settings: source organism: Bacillus anthracis str. A0488
[10] = target: HLA-A*02:11; assay: as above
[11] = target: HLA-A*02:19; assay: as above
[12] = target: HLA-A*03:01; assay: as above
[13] = target: HLA-A*23:01; assay: as above; settings: source organism: Bacillus anthracis str. A0488
[14] = target: HLA-A*24:03; assay: as above; settings: source organism: Bacillus anthracis str. A0488
[15] = target: HLA-A*26:01; assay: as above
[16] = target: HLA-A*29:02; assay: as above; settings: source organism: Bacillus anthracis str. A0488
[17] = target: HLA-B*15:01; assay: as above
[18] = target: HLA-B*18:01; assay: as above; settings: source organism: Bacillus anthracis str. A0488
[19] = target: HLA-B*27:03; assay: as above
[20] = target: HLA-B*39:01; assay: as above
[21] = target: HLA-B*46:01; assay: as above
[22] = target: HLA-B*51:01; assay: as above
[23] = target: HLA-B*57:01; assay: as above
[24] = target: HLA-A*68:02; assay: as above
[25] = target: HLA-B*18:01; assay: IEDB peptide-MHC binding, purified MHC/direct/fluorescence; filed as Kd, often an IC50 or EC50 that approximates it; ≥ and ≤ were set here for values at or beyond the usual limits of such assays; settings: source organism: Influenza A virus (A/Turkey/MO/24093/99(H1N2))
[26] = target: HLA-B*40:01; assay: as above; settings: source organism: Influenza A virus (A/Turkey/MO/24093/99(H1N2))
[27] = target: HLA-B*44:02; assay: as above
[28] = target: HLA-B*15:42; assay: IEDB peptide-MHC binding, purified MHC/competitive/fluorescence; filed as Kd, often an IC50 or EC50 that approximates it; ≥ and ≤ were set here for values at or beyond the usual limits of such assays; settings: source organism: Influenza A virus (A/Fort Monmouth/1/1947-mouse adapted(H1N1))
[29] = target: HLA-B*45:06; assay: as above; settings: source organism: Influenza A virus (A/Fort Monmouth/1/1947-mouse adapted(H1N1))
[30] = target: HLA-B*83:01; assay: as above; settings: source organism: Influenza A virus (A/Fort Monmouth/1/1947-mouse adapted(H1N1))
[31] = target: HLA-B*07:02; assay: as above
[32] = target: HLA-B*51:01; assay: IEDB peptide-MHC binding, purified MHC/direct/fluorescence; filed as Kd, often an IC50 or EC50 that approximates it; ≥ and ≤ were set here for values at or beyond the usual limits of such assays; settings: source organism: Baboon gamma-herpesvirus
[33] = target: HLA-A*02:12; assay: IEDB peptide-MHC binding, purified MHC/competitive/fluorescence; filed as Kd, often an IC50 or EC50 that approximates it; ≥ and ≤ were set here for values at or beyond the usual limits of such assays; settings: source organism: Entamoeba histolytica HM-1:IMSS
[34] = target: HLA-A*69:01; assay: as above; settings: source organism: Entamoeba histolytica HM-1:IMSS
[35] = target: HLA-A*01:01; assay: IEDB peptide-MHC binding, purified MHC/direct/fluorescence; filed as Kd, often an IC50 or EC50 that approximates it; ≥ and ≤ were set here for values at or beyond the usual limits of such assays; settings: source organism: Yersinia pestis
[36] = target: HLA-A*03:01; assay: as above; settings: source organism: Yersinia pestis
[37] = target: HLA-A*11:01; assay: as above; settings: source organism: Yersinia pestis
[38] = target: HLA-A*26:01; assay: as above; settings: source organism: Yersinia pestis
[39] = target: HLA-A*31:01; assay: as above; settings: source organism: Yersinia pestis
[40] = target: HLA-B*07:02; assay: as above; settings: source organism: Yersinia pestis
[41] = target: HLA-B*08:01; assay: as above; settings: source organism: Yersinia pestis
[42] = target: HLA-B*15:01; assay: as above; settings: source organism: Yersinia pestis
[43] = target: HLA-B*27:05; assay: as above; settings: source organism: Yersinia pestis
[44] = target: HLA-B*35:01; assay: as above; settings: source organism: Yersinia pestis
[45] = target: HLA-B*58:01; assay: as above; settings: source organism: Yersinia pestis
[46] = source organism: Coxiella burnetii RSA 493
[47] = source organism: Camelpox virus CMS
[48] = source organism: Bacillus anthracis str. A0488
[49] = source organism: Human immunodeficiency virus 1
[50] = source organism: Entamoeba histolytica HM-1:IMSS
[51] = source organism: Marburg virus - Musoke, Kenya, 1980
[52] = source organism: Yersinia pestis

Sequence: DAMENPLSL
- Kd ([1]; source organism: Leishmania donovani): 0.625 µM

Sequence: FLFLYWPHY
- Kd [2, 46]: 0.628 µM
- Kd [3, 46]: 1.74 µM

Sequence: FYYNAFHWA
- Kd ([4]; source organism: Homo sapiens): 0.813 µM

Sequence: HMIDKLFYV
- Kd [5, 47]: ≤ 0.001 µM
- Kd [6]: ≤ 0.001 µM
- Kd [7, 47]: 0.002 µM
- Kd ([1]; source organism: Variola virus): 0.787 µM
- Kd [8]: 0.0215 µM

Sequence: KLWASFFQG
- Kd [2, 48]: 0.104 µM
- Kd [9]: ≥ 20 µM
- Kd [10, 48]: 0.0025 µM
- Kd [11, 48]: ≥ 20 µM
- Kd [12, 48]: ≥ 20 µM
- Kd [13]: ≥ 20 µM
- Kd [14]: ≥ 20 µM
- Kd [15, 48]: ≥ 20 µM
- Kd [16]: ≥ 20 µM
- Kd [17, 48]: ≥ 20 µM
- Kd [18]: ≥ 20 µM
- Kd [19, 48]: ≥ 20 µM
- Kd [20, 48]: ≥ 20 µM
- Kd [21, 48]: ≥ 20 µM
- Kd [22, 48]: ≥ 20 µM
- Kd [23, 48]: ≥ 20 µM

Sequence: LYNTVAVLY
- Kd [4, 49]: ≥ 20 µM
- Kd [24, 49]: ≥ 20 µM

Sequence: MQIRGFVYF
- Kd [25]: 0.119 µM
- Kd [26]: ≥ 20 µM
- Kd ([27]; source organism: Influenza A virus (A/Turkey/MO/24093/99(H1N2))): ≥ 20 µM
- Kd ([4]; source organism: Influenza A virus (A/Fort Monmouth/1/1947-mouse adapted(H1N1))): ≥ 20 µM
- Kd [28]: ≥ 5 µM
- Kd [29]: ≥ 5 µM
- Kd [30]: ≥ 5 µM

Sequence: PPKYTPRPA
- Kd ([31]; source organism: Escherichia coli 536): ≥ 20 µM

Sequence: VAYHFHEPL
- Kd ([1]; source organism: Mycobacterium tuberculosis variant bovis BCG str. Pasteur 1173P2): ≤ 0.001 µM

Sequence: VPGSETMCY
- Kd [32]: ≥ 20 µM
- Kd ([31]; source organism: human gammaherpesvirus 4): ≥ 20 µM

Sequence: WAKLLKQKW
- Kd [2, 50]: ≥ 20 µM
- Kd [10, 50]: ≥ 20 µM
- Kd [33]: ≥ 20 µM
- Kd [3, 50]: ≥ 20 µM
- Kd [11, 50]: ≥ 20 µM
- Kd [12, 50]: ≥ 20 µM
- Kd [15, 50]: ≥ 20 µM
- Kd [24, 50]: ≥ 20 µM
- Kd [34]: ≥ 20 µM
- Kd [17, 50]: ≥ 20 µM
- Kd [19, 50]: ≥ 20 µM
- Kd [20, 50]: ≥ 20 µM
- Kd [21, 50]: ≥ 20 µM
- Kd [22, 50]: ≥ 20 µM
- Kd [23, 50]: 0.227 µM

Sequence: WLDSVIQYL
- Kd [5, 51]: 0.143 µM
- Kd [7, 51]: 0.963 µM
- Kd ([1]; source organism: Orthomarburgvirus marburgense): 0.24 µM

Sequence: YGIPFPGSL
- Kd [35]: ≥ 20 µM
- Kd [5, 52]: 14.3 µM
- Kd [36]: ≥ 20 µM
- Kd [37]: ≥ 20 µM
- Kd [38]: ≥ 20 µM
- Kd [39]: ≥ 20 µM
- Kd [7, 52]: ≥ 20 µM
- Kd [40]: 9.76 µM
- Kd [41]: ≥ 20 µM
- Kd [42]: ≥ 20 µM
- Kd [43]: ≥ 20 µM
- Kd [44]: 0.12 µM
- Kd [27, 52]: ≥ 20 µM
- Kd [45]: ≥ 20 µM
- Kd ([1]; source organism: Yersinia pestis Nepal516): ≤ 0.001 µM

Source: the Immune Epitope Database (IEDB)
